Test results published in article PMC5080453, “Structural characterization of twisted gastrulation provides insights into opposing functions on the BMP signalling pathway” (Matrix Biology, 2016).
One block for each binder: values may come before it.

B1: human twisted gastrulation (Tsg), native (glycosylated) (natural protein, UniProt Q9GZX9 26-223, looked up)
chain: CNKALCASDVSKCLIQELCQCRPGEGNCSCCKECMLCLGALWDECCDCVGMCNPRNYSDTPPTSKSTVEELHEPIPSLFRALTEGDTQLNWNIVSFPVAEELSHHENLVSFLETVNQPHHQNVSVPSNNVHAPYSSDKEHMCTVVYFDDCMSIHQCKISCESMGASKYRWFHNACCECIGPECIDYGSKTVKCMNCMF
modifications: N-linked glycans (three predicted N-linked glycosylation sites)
notes: twisted gastrulation (Tsg), human, generated by PCR from image clone Q9GZX9; a thrombin cleavage site stands before the C-terminal His6 tag; For MST it was labelled with NT647 (Red-NHS kit); Monomer by MALS, AUC and SAXS; also called native Tsg

Assays:
Conditions in all cases: both partners purified
[1] = target: T1, ΔN-chordin (human chordin construct lacking the N-terminal part) (human, UniProt Q9H2X0 129-955); test: SPR; ProteOn XPR36, GLC chip; Tsg immobilised by amine coupling (300 RU for ΔN-chordin and vWC2–3, 800 RU for vWC1-4CHRD and vWC1); chordin constructs injected at increasing concentrations; 25 °C, 10 mM HEPES, 150 mM NaCl, 3 mM EDTA, 0.05% Tween-20, pH 7.4, 50 μl/min; ΔN-chordin fitted to a 1:1 Langmuir model, vWC2–3 by equilibrium analysis; triplicate
T1 construct: chordin, human, ΔN-chordin: partially cleaved chordin fragment lacking the N-terminus and containing the C-terminal vWC domains; source: HEK 293-EBNA cells, as previously described [13]
T1 sequence (looked up): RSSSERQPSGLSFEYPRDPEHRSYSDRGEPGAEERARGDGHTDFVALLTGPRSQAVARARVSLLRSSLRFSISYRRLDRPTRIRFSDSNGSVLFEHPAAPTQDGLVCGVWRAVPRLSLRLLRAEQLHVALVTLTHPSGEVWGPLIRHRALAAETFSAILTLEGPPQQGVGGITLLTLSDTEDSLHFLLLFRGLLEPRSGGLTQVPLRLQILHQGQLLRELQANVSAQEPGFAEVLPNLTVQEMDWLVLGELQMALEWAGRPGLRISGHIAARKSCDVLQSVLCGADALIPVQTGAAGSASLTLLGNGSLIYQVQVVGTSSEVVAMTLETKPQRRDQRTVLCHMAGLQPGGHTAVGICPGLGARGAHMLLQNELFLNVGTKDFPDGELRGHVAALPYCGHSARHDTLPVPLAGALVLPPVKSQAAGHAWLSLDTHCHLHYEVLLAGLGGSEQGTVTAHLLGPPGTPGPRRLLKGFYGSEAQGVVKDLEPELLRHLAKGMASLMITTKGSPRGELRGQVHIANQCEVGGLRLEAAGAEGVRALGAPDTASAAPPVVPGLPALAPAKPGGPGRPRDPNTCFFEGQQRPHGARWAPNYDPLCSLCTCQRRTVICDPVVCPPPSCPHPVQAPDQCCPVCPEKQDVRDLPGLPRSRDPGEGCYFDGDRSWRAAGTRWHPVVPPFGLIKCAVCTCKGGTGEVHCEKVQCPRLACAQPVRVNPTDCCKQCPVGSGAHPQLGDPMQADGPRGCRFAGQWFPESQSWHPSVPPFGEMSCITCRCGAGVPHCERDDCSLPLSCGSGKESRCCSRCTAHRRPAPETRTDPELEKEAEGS

[2] = target: B1; test: as above
[3] = target: B1; test: MST; 15 nM NT647-labelled Tsg mixed with serial dilutions of vWC1 from 7 μM; 50 mM Tris, 150 mM NaCl, 10 mM MgCl2, 0.05% Tween-20, pH 7.4; Monolith NT.115Pico, 20% LED, 20% MST power; triplicate

Binder: B1
Kd [1]: 3.08 nM

Kd [2]: 26.4 nM
B2: chordin vWC2–3 (residues 701–860) (domain or fragment, human, UniProt Q9H2X0 701-860, looked up)
chain: DPNTCFFEGQQRPHGARWAPNYDPLCSLCTCQRRTVICDPVVCPPPSCPHPVQAPDQCCPVCPEKQDVRDLPGLPRSRDPGEGCYFDGDRSWRAAGTRWHPVVPPFGLIKCAVCTCKGGTGEVHCEKVQCPRLACAQPVRVNPTDCCKQCPVGSGAHPQL
notes: chordin, human, vWC2–3, residues 701–860, generated by PCR from full-length human chordin; thrombin cleavage site before the C-terminal His6 tag

Kd [3]: 322 nM
B3: chordin vWC1 (residues 50–128) (domain or fragment, human, UniProt Q9H2X0 50-128, looked up)
chain: GCTFGGKVYALDETWHPDLGEPFGVMRCVLCACEAPQWGRRTRGPGRVSCKNIKPECPTPACGQPRQLPGHCCQTCPQE
notes: chordin, human, vWC1, residues 50–128, generated by PCR from full-length human chordin; thrombin cleavage site before the C-terminal His6 tag
